Experimental data from the DeepSol protein solubility set.

Experiment: soluble on expression in E. coli; label from the status in PepcDB or PDB records

Soluble on expression in E. coli, not soluble:
MGSDKIHHHHHHATVTDSASTDIGIGFSGHGPGTTPGPLDIQWAPIGLDFSNSNMVNTTAVQAFPETTGTNKYVVVSEKRSNEPTREWSLTAQLSDLTNAGGSETLTGAGLKFDAAVKGYTGTNTPESPGSIVDKGARTATVNASSQSVTAGAAAVPVMKDAGTGGASFLGSTAMEMSNVKLEVPANAAKINQQYSGTLTWSLNDTI
MGSDKIHHHHHHAWGAKDAEVGKAWKGWKKGQFQIHLIYTGVSESMFLIFPDGTTMLLDCGDHNAVGRGKLAVPVLPNPDRHAGEWISRYVRRVNPQKDYVDYMMLTHYHSDHGGNNKFYARKETRDGKDYYLSGFSQAAEYLTFGKAFDRCWPDYNDPLPLTQEAADAFEHMKDFYDYMLAHKKMEIEKFCLGETNQIAMKKDATAYPGFSVRNICANGRIADKEGNIRDLYAERKKSNPVKFSENGMSLGMIFTYGDFKFYTAGDFSDGWELPNGKRFEIEDAIADVVEPVSVAKINHHGHKSMTDKLVAALRPRVVVNNVWDQLHTLPSVMERFYNRNLYPGERIVCPTVFPAERRAEDAGQPWLDILNPSSFDAGHVIVNVEEGGKDYSVTYLTANDESMTVKSVMRFKS
MGSDKIHHHHHHDAGAPAFLSAGRVADGAYNLYGLDRRGRPLFHLPIPDRGHAAAAHPQRAEAVAFARRPGRFALVLNCVSGAEIARLSAPEGRHFYGHGAFDAEGRVLFTTENDYEAGQGRIGLWDAGAGYRRIGEVASGGVGPHDIRLMPDGQTLVVANGGVETHPDTGRVKLNLPVMQPNLSYLSLAGEVLEVVRMPPEHRMNSIRHLDLRADGLVAFAMQWQGEGTELRPVLGLHRRGTAPVAVTGNEAEMRAMNGYGGSVIFYDQGRRVAVSSPRGGIVQLSDVAAGRIIGGVAITDVCGLGVTGGGLVASSGSGVFTRVGGKEASRSEIAWDNHLVAVNRA
MGSDKIHHHHHHDDHQGIIPLPPVENAFQEKYPDAKNPVFEIEGNYYVVDFNNGGSETTAWFTDQGIWMMEKIDISFAQLPAAVSTAFKQSFYSNWTVDDTYAINRLNMGIVYKIEAEQSNSEVDLYYSQYGNLIKAVDDEINNDAPIVIPKEVSNLMEITFANAELLDIQQNSLGYELDMIDNQIYKVAQLNKDYRWQSTTWAMSEQEVPQIVMQGFESSAYASDKVQSIYTLLNANGTFYLFKVSHNGQDKTITFDVFGNIV
MGSDKIHHHHHHDGDDMSSCSSHSSFGSEYSEENKVNCTIDNFPVQAIALERCDGTLDSLFTKENLAMKRPQLRSAMFQIVMSLRVLQKAFRFTHNDLHTNNVVWCATDRKYLFYKHNSKYYRVPTFGRIFKIIDFGRAIYRFRGETMCSDSYHPSGDAGSQYNCEPYFNPNKPLLEPHFGFDLARLGCSLYELVDAEDVDDNGIINEEKLGDVERMIVSWCRDDKGRNILFKRDGDERYPGFKLYKMIARTSHDHTPEKMLAGYVFDTYLMAAKKCKKQERLMDVDAIPDYTEVVVGGDGKEVNATS
MGSDKIHHHHHHEDTTSSPEEDPLAPQNDDADLLLKPLIAKDPRTRGQRGPFAAMTGSYGRGGYGGSGGGAFGGFNGGYGQGGYGGGGDFGGGMGGGGYGGGGYGGGGDGGGGYGGYGGGGYGGMGGGPGGYGMGGYGGGGGGGGDFGGYGGGGMGGGGYGGGGDGGYGGGGFGGGGMGGYGGGMGGGGYGGGGMGGGGYGGGGDGGYGPSGGYGGGYGPGGGYGMGGGGGGGGCPNGECRGKK
MGSDKIHHHHHHEELEYKGMNTLQISNVDDLISFYQYADDRIPLISGHRGGRGKGYPENSMETFENTLSYTPATFEIDPRLTKDSVIVLFHDDTLERTSNGTGKVSDYTWEELQNFRLKDPEGNITNYRIPTLEEAIRWARGKTILILDKKDVPMERTAQLITDMQAEPYVMITVHDGASARFFYEKNPNFMFEAFVKTKEAVQDYEDNGIPWSHIMAYVGPKITPEVREVIDMLHERGVMCMISTAPSDDKLSTPESRAEAYRMIIRQGVDIIESDRPIEVAEAISSLIPVSSSKGKFFSTL
MGSDKIHHHHHHEPVSSISDANYWKSPDLFKAFNIGLHGLLRSQSSYNIFVLGEPRSDIYGDQPFGGEATQGVERFSYNTINAEFTGISNFANFYTTLNQINLMIRRTNETDLLGEAEKNYYLGQAYGLRAYIYFHLLRSWGDVIITTEPTLGSELDISHLDKAASPASEVMDLIKKDIDASEKAFGGDYSYKQGKCYWSKPATLMLKGEVYLWSGRQMGGGTGDYTVAKTALQDLQQNGNLKLQEKFTDVFSFNNKENSEMIFALHSGKEDDFMMWRDYNWRNNMVPQREYMAGYCDETGTPFLEIPGYNLQGLMRYQVKKDHYLKSFREGDTRLKGTLKAVYKKHEDGTLEYIAPIQYKFQGTTLEGSNERSWYDDYPIYRYADALLLLAEAKALLGEDPSTEINAVRERAYGSEYFNAHKNEVAYPNDKGSFYNDNPFEAGDENVMEAILKERLREFFFEGKRWYDLRRFGKDYVLKYTTAQESRLLWPINEGALTNNPALKQTPGY
MGSDKIHHHHHHFVSIELKDRSLVNNQYKGKIKSANLSVDYEINQVMKDIDKLGLNTVNVPIIINVESINSDIMSIDNNSKEKAIKLIKKLNKKGISTILEAYPWIENGKLYETDWNPINKKRFFYTWQNAILNELIIDVANPLDVNVLNIGSNFVHLEEYQQNWGEIIDFVQSKFDGLVTYRTNWWYTKKDDLSSKLFYEQKLNNNFFDKLDFISIAAYFELSNKPVNTVDELISALHSSTVNNRGQNIKQEIYNLYKAHRKPIFFGELGFSNRESASSQPWNHTPSKAVNGEEQARCFEAYKKVFENEDWINGFSVFCVGKIDDEKNFYPSKESIKVIKSWYE
MGSDKIHHHHHHGASVQDLSNTKDAIVESETTLAENNNEYSNKNSLFYSDISSYEIFTDVNSEAALKNLYYNIDEFIDSDSSDVIVKGNIIEIEYVYIDGCSYSVLTVDVERAYKGEVQETITVYEDGGYTRLSDEKEQIEAHADLSQYTEEEMENLLINHTFMGAEHSNVGDTVILFLKTNEGSILGDSYRINCSVFGRYTLNKDSYIRPEFIVENDNPEKITTYSNMDTFEFSVSKSMLEDKLSQQ
MGSDKIHHHHHHGCEKEKSHTVLELFSESQSLSPKKDFYVNEDSIAIIEGLSCDGKNLIVNDYHSGCCYTLFDKKSGEYIARFGTIGQGPAELPSPCYGYLTESDFTVFDDQTRIVMKYSLDSLRNSRKKDGSPVRLAQYKIPEAQISKLIAIDDTTFLCAGTYKSRYQYLLFNKNDSVLDYGVDVYNAADSAFQTYTRYLSNQGNLVMNPEKHTFAGSINFSSNIDFFEIVNNKIELIKSLRLGDPINKPVNEEGIYYVDLTENTQTGYIDLSATSKYVYALYSDKKMYENNRKSDTVLVFDWDGNPIKKYSLDTDAYYIAVDSTQQSLFAAVKNSSSGWKIICYALD
MGSDKIHHHHHHGQPSNDKKNVLPDWAFGGFERPQGANPVISPIENTKFYCPMTQDYVAWESNDTFNPAATLHDGKIVVLYRAEDKSGVGIGHRTSRLGYATSSDGIHFKREKTPVFYPDNDTQKKLEWPGGCEDPRIAVTAEGLYVMTYTQWNRHIPRLAIATSRNLKDWTKHGPAFAKAYDGKFFNLGCKSGSILTEVVNGKQVIKKIDGKYFMYWGEEHVFAATSEDLVNWTPYVNTDGSLRKLFSPRDGHFDSQLTECGPPAIYTPKGIVLLYNGKNSASRGDKRYTANVYAAGQALFDANDPTRFITRLDEPFFRPMDSFEKSGQYVDGTVFIEGMVYYKDKWYLYYGCADSKVGMAIYNPKKPAAADPLP
MGSDKIHHHHHHILFELCFGLAVAQKNLGFIHNDLHSDNIMFKKCQQQFKYYQFHNKFFKVPTWCRETKVIDFARGILKVGKTTYFSDVFKNEGDAGGQYQYLNSQKNKKFNFHFDLARLATTIREFTENKKELQEIDNLLVDWCLNKNGDNFLEMDDDFSLYVMIASTADKCLPKDQIDNKIFRDFLISKEDIPAGEIIY
